Measurements: the RNAGym collection of RNA variant scans (doi:10.7554/elife.80360)

B1: Hairpin Ribozyme (parent)
chain: GUCCUCUUUCACGUGCGCGUGAAAGAGAGAAGUGAACCAGAGAAACACACGUUGUGGUAUAUUACCUGGUA

Variants of: B1
Assay: self-cleavage, relative activity (ratio to wild type); higher = more cleavage; co-transcriptional

**Q.** With GUGCUCUUUCACGUGCGCGUGAAAGAGAGAAGUGAACCAGAGAUACACACGUUGUGGUAUAUUACCUGGUA as the variant, how does the self-cleavage read?
**A.** 0.114

**Q.** Which self-cleavage does the source give for GUACUCUUUCACGUGCGCGUGAAAGAGAGAAGUGAACCAGAGAAACACACUUUGUGGUAUAUUACCUGGUA here?
**A.** 0.792

**Q.** For GUACUCUUUCAUGUGCGCGUGAAAGAGAGAAGUGAACCAGAGAAACACACGUUGUGGUAUAUUACCUGGUA, which self-cleavage is on record?
**A.** 0.59

**Q.** Which self-cleavage does the source give for GUGCUCUUUCACGUGCGCGUGAAAGAGUGAAGUGAACCAGAGAAACACACGUUGUGGUAUAUUACCUGGUA here?
**A.** 0.647

**Q.** Which self-cleavage does the source give for GUACUCUUUCACGUGCGCGAGAAAGAGAGAAGUGAACCAGAGAAACACACGUUGUGGUAUAUUACCUGGUA here?
**A.** 0.582

**Q.** With GUACUCUUUCACGUGCGCGGGAAAGAGAGAAGUGAACCAGAGAAACACACGUUGUGGUAUAUUACCUGGUA as the variant, how does the self-cleavage read?
**A.** 0.607

**Q.** For GUGCUCUUUCACGUGCGCGUGAAAGAGAGAAGUGAACCCGAGAAACACACGUUGUGGUAUAUUACCUGGUA, which self-cleavage is on record?
**A.** 0.202

**Q.** With GUGCUCUUUCACGUGCGCGUGAAAGAGAGAAGUGAACCAGAGAAACACACGUUGUGGUUUAUUACCUGGUA as the variant, how does the self-cleavage read?
**A.** 0.164

**Q.** Which self-cleavage does the source give for GUGCUCUUUCACGUGCGCGUGAAAGAGAGAAGUGAACCAGAGAAACACACGUUGUGGUGUAUUACCUGGUA here?
**A.** 0.0582

**Q.** Which self-cleavage does the source give for GUGCUCUUUCACGUGCGCGUGAAAGAGAGAAGUGUACCAGAGAAACACACGUUGUGGUAUAUUACCUGGUA here?
**A.** 0.202

**Q.** Which self-cleavage does the source give for GUGCUCUUUCACGUGCGCGUGAAAGAGAGAAGUGGACCAGAGAAACACACGUUGUGGUAUAUUACCUGGUA here?
**A.** 0.291

**Q.** With GUACUCUUUCACGUGCGCGUGAAAGAGAGAAGUGAACAAGAGAAACACACGUUGUGGUAUAUUACCUGGUA as the variant, how does the self-cleavage read?
**A.** 0.215

**Q.** Which self-cleavage does the source give for GUGCUCUUUCACGUGCGCGUGAAAGAGAGAAGUGAACCAGAGAAACACACGUUGUGGUAUAUUACCUGGUA here?
**A.** 0.296

**Q.** With GUACUCUUUCACGUGCGCGUGAAAGAGAGAAGUGAACCAGACAAACACACGUUGUGGUAUAUUACCUGGUA as the variant, how does the self-cleavage read?
**A.** 0.214

**Q.** Which self-cleavage does the source give for GUAGUCUUUCACGUGCGCGUGAAAGAGAGAAGUGAACCAGAGAAACACACGUUGUGGUAUAUUACCUGGUA here?
**A.** 0.359

**Q.** For GUAUUCUUUCACGUGCGCGUGAAAGAGAGAAGUGAACCAGAGAAACACACGUUGUGGUAUAUUACCUGGUA, which self-cleavage is on record?
**A.** 0.42

**Q.** For GUACUCUUUCACGUGCGCGUGAAAGAGAGAAGUGAACCAGAGAAACACACGUUGUGGUAUACUACCUGGUA, which self-cleavage is on record?
**A.** 0.2

**Q.** Which self-cleavage does the source give for GUGCUCUUUCACGUGCGCGUGAAAGAGAGAAGUGAACCAGAGAAACACACGUUGUGGUAUAUUACCUGGUU here?
**A.** 0.148

**Q.** For GUGCUCUUUCACGUGCGCGUGAAAGAGAGAAGUGAACCAGAGAAACACACGUUGUGGUAUAUUACCUGGUC, which self-cleavage is on record?
**A.** 0.58

**Q.** Which self-cleavage does the source give for GUACUCUUUCACGUGCGCGUGAAAGAGAGAAGAGAACCAGAGAAACACACGUUGUGGUAUAUUACCUGGUA here?
**A.** 0.0769

**Q.** For GUACUCUUUCACGUGCGCGUGAAAGAGAGAAGUGAAACAGAGAAACACACGUUGUGGUAUAUUACCUGGUA, which self-cleavage is on record?
**A.** 0.217

**Q.** With GUGUUCUUUCACGUGCGCGUGAAAGAGAGAAGUGAACCAGAGAAACACACGUUGUGGUAUAUUACCUGGUA as the variant, how does the self-cleavage read?
**A.** 0.277

**Q.** With GUACUCUUUCACGUGCGCGUGAAAGAGAGAAGUGAACCAGAGAAACACACGUUAUGGUAUAUUACCUGGUA as the variant, how does the self-cleavage read?
**A.** 0.351

**Q.** Which self-cleavage does the source give for GUACUCUUUCACGUGCGCGUGAAAGAGAGAAGUGAACCAGAGAAACACACGUUCUGGUAUAUUACCUGGUA here?
**A.** 0.206

**Q.** For GUACUCUUUCACGUGCGCGUGAAAGAGAGAAGUGAACCAGAGAAACACACGUUGUGGUAUAUUACCUGGUC, which self-cleavage is on record?
**A.** 1.11

**Q.** With GUACUCUUUCACGUGCGCGUGAAAGAGAGAAGUGAACCAGAGAAACACACGUUGUGGUAUAUUACCUGGUU as the variant, how does the self-cleavage read?
**A.** 0.517

**Q.** Which self-cleavage does the source give for GUACUCUUUCACGUGCGCGUGAAAGAGAGAAGUCAACCAGAGAAACACACGUUGUGGUAUAUUACCUGGUA here?
**A.** 0.984

**Q.** Which self-cleavage does the source give for GUACUCUUUCACGUGCGCGUGAAAGAGAUAAGUGAACCAGAGAAACACACGUUGUGGUAUAUUACCUGGUA here?
**A.** 0.0763

**Q.** For GUACUCUUUCACGGGCGCGUGAAAGAGAGAAGUGAACCAGAGAAACACACGUUGUGGUAUAUUACCUGGUA, which self-cleavage is on record?
**A.** 0.623

**Q.** Which self-cleavage does the source give for GUACUCUUUCACGUGCGCGUGAAAGAGAGAAGUGAACCAGAGAAACACACGUUGUGCUAUAUUACCUGGUA here?
**A.** 0.169

**Q.** With GUGCUGUUUCACGUGCGCGUGAAAGAGAGAAGUGAACCAGAGAAACACACGUUGUGGUAUAUUACCUGGUA as the variant, how does the self-cleavage read?
**A.** 0.214

**Q.** With GUGCUUUUUCACGUGCGCGUGAAAGAGAGAAGUGAACCAGAGAAACACACGUUGUGGUAUAUUACCUGGUA as the variant, how does the self-cleavage read?
**A.** 0.295

**Q.** For GUACUUUUUCACGUGCGCGUGAAAGAGAGAAGUGAACCAGAGAAACACACGUUGUGGUAUAUUACCUGGUA, which self-cleavage is on record?
**A.** 0.471

**Q.** With GUACUCCUUCACGUGCGCGUGAAAGAGAGAAGUGAACCAGAGAAACACACGUUGUGGUAUAUUACCUGGUA as the variant, how does the self-cleavage read?
**A.** 0.621

**Q.** Which self-cleavage does the source give for GUACUCUUUCACGUGCGCGUGAAAGAGAGAAGUGAACCAGAGAAACACAGGUUGUGGUAUAUUACCUGGUA here?
**A.** 0.199

**Q.** For GUACUCUUUCACGUGCGCGUGAAACAGAGAAGUGAACCAGAGAAACACACGUUGUGGUAUAUUACCUGGUA, which self-cleavage is on record?
**A.** 0.202

**Q.** For GUGCUCUUUAACGUGCGCGUGAAAGAGAGAAGUGAACCAGAGAAACACACGUUGUGGUAUAUUACCUGGUA, which self-cleavage is on record?
**A.** 0.18

**Q.** For GUACUCUUUCACGUGCGCGUGAAAGAGAGAAGUGAACCAGAGAAACACACGUUGUGGUAUAUUACCUGCUA, which self-cleavage is on record?
**A.** 0.342
